The target of test [1] is T1, Anti-CD28 Fab (SEQ ID NOs: 696, 697).
T1 construct: Biotinylated and captured on neutravidin coated plates in the phage ELISA
The test can be described thus: phage binding ELISA on captured Fab; competitor: CD28 antigen pre-incubated in the wells. For orientation: ELISA stands for enzyme-linked immunosorbent assay.
T1 sequence (VH, as listed by the source, chain 1 of 2): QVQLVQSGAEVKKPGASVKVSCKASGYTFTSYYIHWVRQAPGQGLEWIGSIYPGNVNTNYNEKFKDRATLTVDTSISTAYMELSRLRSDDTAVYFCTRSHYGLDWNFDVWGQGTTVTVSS
T1 sequence (VL, as listed by the source, chain 2 of 2): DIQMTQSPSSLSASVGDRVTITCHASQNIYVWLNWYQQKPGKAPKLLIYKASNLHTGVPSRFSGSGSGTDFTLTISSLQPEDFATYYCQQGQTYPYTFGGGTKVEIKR
Description: (§1) After panning, phage infected bacteria were plated out and colonies picked into 96 well blocks. Clonal phage was then amplified and separated from bacterial cells via centrifugation.
(§2) Clonal phage were harvested as crude supematants and screened via standard ELISAs. […] Prior to the addition of clonal phage, wells were incubated with blocking buffer and CD28 antigen or blocking buffer alone. Without washing or aspirating, clonal phage supematants were then added to the wells and incubated for a short time. Wells were then washed followed by detection of bound phage using a horse radish conjugated anti-M13 antibody. Clonal phage of interest were then sent for sequence analysis.

For test [2], the target named is Anti-CD28 Fab (SEQ ID NOs: 696, 697). The test can be described thus: phage binding ELISA; biotinylated Fab on neutravidin plate, anti-M13 HRP detection.
Target sequence in this assay (VH, as listed by the source, chain 1 of 2): as the sequence (VH, as listed by the source, chain 1 of 2) above
Target sequence in this assay (VL, as listed by the source, chain 2 of 2): as the sequence (VL, as listed by the source, chain 2 of 2) above
Description: as §1, §2
For test [3] the target is unchanged. The test can be described thus: phage binding ELISA on Fab coated plate; CD28 antigen as competitor.
Target sequence in this assay (VH, as listed by the source, chain 1 of 2): as the sequence (VH, as listed by the source, chain 1 of 2) above
Target sequence in this assay (VL, as listed by the source, chain 2 of 2): as the sequence (VL, as listed by the source, chain 2 of 2) above
Description: as §1, §2
Test [4] deals with T2, Anti-CD28 Fab (SEQ ID NOs: 696, 697).
T2 construct: Biotinylated and captured on neutravidin coated plates in the phage ELISA
The test can be described thus: phage ELISA; clonal phage on plate-captured biotinylated anti-CD28 Fab, anti-M13 HRP detection.
T2 sequence (VH, as listed by the source, chain 1 of 2): as the sequence (VH, as listed by the source, chain 1 of 2) above
T2 sequence (VL, as listed by the source, chain 2 of 2): as the sequence (VL, as listed by the source, chain 2 of 2) above
Description: as §1, §2

The target is the same in test [5]. The test can be described thus: phage ELISA; clonal phage on plate-captured anti-CD28 Fab pre-incubated with CD28 antigen as competitor.
Target sequence in this assay (VH, as listed by the source, chain 1 of 2): as the sequence (VH, as listed by the source, chain 1 of 2) above
Target sequence in this assay (VL, as listed by the source, chain 2 of 2): as the sequence (VL, as listed by the source, chain 2 of 2) above
Description: as §1, §2

B1: Phage-1015 (Peptide-87 library peptide, SEQ ID NO: 1331) (peptide)
peptide: YCDGHKAEYMQKCL
notes: tested as crude clonal phage supernatant
B1: in test [1], the “Anti-CD28 Fab signal in the presence of CD28 (phage binding ELISA)” value (“Anti-CD28 Fab signal … (phage binding ELISA)” for short) was 0.06. As for YCEGHLDQYMTKCL [Phage-1028], the “Anti-CD28 Fab (SEQ ID NOs: 696, 697) signal” value in test [2] is 1.47. Moreover, the “Anti-CD28 Fab signal in the presence of CD28” value in test [3] amounted to 0.08.

B2: Phage-1018 (Peptide-87 library peptide, SEQ ID NO: 1334) (peptide)
peptide: YCDGHHKEYLLKCL
notes: as for B1
For the molecule B2, in test [1], the “Anti-CD28 Fab signal … (phage binding ELISA)” value came to 0.06. As to YCAGHTQEYIEKCL [Phage-1029], the “Anti-CD28 Fab (SEQ ID NOs: 696, 697) signal” value in test [2] was found to be 1.47. For the same molecule, in test [3], the “Anti-CD28 Fab signal in the presence of CD28” value was 0.06.

B3: Phage-1011 (Peptide-87 library peptide, SEQ ID NO: 1327) (peptide)
peptide: YCDGHSAEYLSKCL
notes: as for B1
Take B3: the “Anti-CD28 Fab signal … (phage binding ELISA)” value in test [1] worked out at 0.07.

B4: Phage-1006 (peptide)
peptide: YCDGHLAVYMAKCL
notes: as for B1
Regarding B4, in test [4], the “Phage binding ELISA, Anti-CD28 Fab signal” value amounted to 1.52. For the same molecule, the “Phage binding ELISA, Anti-CD28 Fab signal in the presence of CD28” value in test [5] came out at 0.08. Take YCDGHVAEYRHKCL [Phage-1027]: the “Anti-CD28 Fab (SEQ ID NOs: 696, 697) signal” value in test [2] turned out to be 1.47. In addition, the “Anti-CD28 Fab signal in the presence of CD28” value in test [3] was determined as 0.06.

B5: Phage-1007 (peptide)
peptide: YCAGHLPVYMDKCL
notes: as for B1
For the molecule B5, the “Phage binding ELISA, Anti-CD28 Fab signal” value in test [4] worked out at 1.52. In test [5], the “Phage binding ELISA, Anti-CD28 Fab signal in the presence of CD28” value is 0.08. Turning to YCEGHRPEYMQKCV [Phage-1024], in test [2], the “Anti-CD28 Fab (SEQ ID NOs: 696, 697) signal” value was 1.48. In test [3], the “Anti-CD28 Fab signal in the presence of CD28” value amounted to 0.09. Regarding YCAGHTVENMAKCL [Phage-1025], the “Anti-CD28 Fab (SEQ ID NOs: 696, 697) signal” value in test [2] came to 1.48. The “Anti-CD28 Fab signal in the presence of CD28” value in test [3] stood at 0.07.

B6: Phage-1008 (peptide)
peptide: YCEGHSAMYIWKCL
notes: as for B1
On to B6, for which, in test [4], the “Phage binding ELISA, Anti-CD28 Fab signal” value came to 1.52. The “Phage binding ELISA, Anti-CD28 Fab signal in the presence of CD28” value in test [5] was found to be 0.1. Turning to YCDGHLPEYITKCL [Phage-1023], in test [2], the “Anti-CD28 Fab (SEQ ID NOs: 696, 697) signal” value was 1.49. For the same molecule, in test [3], the “Anti-CD28 Fab signal in the presence of CD28” value is 0.06. Regarding YCEGHVLEYRGKCD [Phage-1026], the “Anti-CD28 Fab (SEQ ID NOs: 696, 697) signal” value in test [2] is 1.48. Also, in test [3], the “Anti-CD28 Fab signal in the presence of CD28” value was found to be 0.09. On the same counts, the results for YCDGHLAIYIGKCL [Phage-1030] are 1.47 and 0.08.

B7: Phage-1019 (Peptide-87 library peptide, SEQ ID NO: 1335) (peptide)
peptide: YCDGHLALHMKKCL
notes: as for B1
Regarding B7, in test [1], the “Anti-CD28 Fab signal … (phage binding ELISA)” value was determined as 0.08. As to YCDGHLEIYMSKCL [Phage-1031], the “Anti-CD28 Fab (SEQ ID NOs: 696, 697) signal” value in test [2] worked out at 1.46. Also, the “Anti-CD28 Fab signal in the presence of CD28” value in test [3] came to 0.08.

B8: Phage-1009 (peptide)
peptide: YCAGHLEEYMWKCL
notes: as for B1
On to B8, for which, in test [4], the “Phage binding ELISA, Anti-CD28 Fab signal” value came to 1.51. Also, the “Phage binding ELISA, Anti-CD28 Fab signal in the presence of CD28” value in test [5] is 0.08.

B9: Phage-1017 (Peptide-87 library peptide, SEQ ID NO: 1333) (peptide)
peptide: YCSGHLPQYLEKCL
notes: as for B1
Regarding B9, the “Anti-CD28 Fab signal … (phage binding ELISA)” value in test [1] amounted to 0.31.

B10: Phage-1016 (Peptide-87 library peptide, SEQ ID NO: 1332) (peptide)
peptide: YCDGHSPQYIQKCL
notes: as for B1
As for B10, in test [1], the “Anti-CD28 Fab signal … (phage binding ELISA)” value was determined as 0.07.

The values are drawn from patent US20260242478A1 (published 2026).
